Assay results reported in patent US20240116985A1 (published 2024).
Starred links: 1 amine or outer side, 2 acyl side, 3 side chain; linkers in the order of their positions; H or OH if unused. Positions of bridges follow the written chain, without caps; N, C: chain ends. Non-standard residues stand in square brackets, D forms with d. Primed or numbered codes have the meaning given here. *: point of attachment. PyrS2″ = (S)-3-amino-1-((pent-4-en-1-yloxy)carbonyl)pyrrolidine-3-carboxylic acid (stapling residue), C=CCCCOC(=O)N1CC[C@@](N[*:1])(C(=O)[*:2])C1; B5(4) = 2,2-bis(4-pentenyl)glycine = 2-amino-2-(pent-4-en-1-yl)hept-6-enoic acid (stitching residue), C=CCCCC(CCCC=C)(N[*:1])C(=O)[*:2]; B5(5) = 2,2-bis(4-pentenyl)glycine, 2-amino-2-(pent-4-en-1-yl)hept-6-enoic acid (stitching residue), C=CCCCC(CCCC=C)(N[*:1])C(=O)[*:2]; TfeGA = (S)-2-amino-3-((carboxymethyl)(2,2,2-trifluoroethyl)amino)propanoic acid, O=C([C@H](CN(CC(=O)[*:3])CC(F)(F)F)N[*:1])[*:2]; B5(3) = 2,2-bis(4-pentenyl)glycine (stitching residue), C=CCCCC(CCCC=C)(N[*:1])C(=O)[*:2]; Bta = N[C@@H](Cc1csc2ccccc12)C(=O)O; αAllylPro = C=CC[C@@]1(C(=O)O)CCCN1; tBuAla = CC(C)(C)C[C@H](N)C(=O)O; 3Thi = N[C@@H](Cc1ccsc1)C(=O)O; S8 = C=CCCCCCC[C@](C)(N)C(=O)O; Ms = CS(=O)(=O)*

Columns and labels:
[1] = molecular target: T1, B-cat-Halo (UniProt P35222 1-781); test: cell-based or functional assay
T1 sequence (looked up): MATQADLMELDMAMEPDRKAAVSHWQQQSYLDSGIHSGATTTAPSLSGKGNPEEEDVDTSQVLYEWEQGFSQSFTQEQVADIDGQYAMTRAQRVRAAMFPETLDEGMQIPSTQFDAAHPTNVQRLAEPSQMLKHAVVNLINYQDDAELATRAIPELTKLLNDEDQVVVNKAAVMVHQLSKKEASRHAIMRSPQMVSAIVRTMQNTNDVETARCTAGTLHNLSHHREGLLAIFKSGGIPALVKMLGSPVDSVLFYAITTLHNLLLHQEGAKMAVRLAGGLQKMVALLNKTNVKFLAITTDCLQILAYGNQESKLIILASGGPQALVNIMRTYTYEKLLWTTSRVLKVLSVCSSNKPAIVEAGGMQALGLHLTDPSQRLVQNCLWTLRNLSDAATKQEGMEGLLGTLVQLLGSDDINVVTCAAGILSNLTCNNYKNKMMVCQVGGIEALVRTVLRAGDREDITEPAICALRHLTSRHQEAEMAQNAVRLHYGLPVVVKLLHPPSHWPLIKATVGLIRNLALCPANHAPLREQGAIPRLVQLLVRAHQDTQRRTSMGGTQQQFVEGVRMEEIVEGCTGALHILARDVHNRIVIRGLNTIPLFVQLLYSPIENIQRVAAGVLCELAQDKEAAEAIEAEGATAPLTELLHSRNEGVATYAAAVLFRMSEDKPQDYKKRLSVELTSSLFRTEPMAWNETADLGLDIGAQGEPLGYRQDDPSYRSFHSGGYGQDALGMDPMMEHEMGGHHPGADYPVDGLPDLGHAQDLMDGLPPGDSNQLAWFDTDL

[2] = molecular target: T2, beta-catenin in DLD1 TCF/LEF luciferase reporter cells (UniProt P35222 2-781); test: cell-based or functional assay
T2 sequence (looked up): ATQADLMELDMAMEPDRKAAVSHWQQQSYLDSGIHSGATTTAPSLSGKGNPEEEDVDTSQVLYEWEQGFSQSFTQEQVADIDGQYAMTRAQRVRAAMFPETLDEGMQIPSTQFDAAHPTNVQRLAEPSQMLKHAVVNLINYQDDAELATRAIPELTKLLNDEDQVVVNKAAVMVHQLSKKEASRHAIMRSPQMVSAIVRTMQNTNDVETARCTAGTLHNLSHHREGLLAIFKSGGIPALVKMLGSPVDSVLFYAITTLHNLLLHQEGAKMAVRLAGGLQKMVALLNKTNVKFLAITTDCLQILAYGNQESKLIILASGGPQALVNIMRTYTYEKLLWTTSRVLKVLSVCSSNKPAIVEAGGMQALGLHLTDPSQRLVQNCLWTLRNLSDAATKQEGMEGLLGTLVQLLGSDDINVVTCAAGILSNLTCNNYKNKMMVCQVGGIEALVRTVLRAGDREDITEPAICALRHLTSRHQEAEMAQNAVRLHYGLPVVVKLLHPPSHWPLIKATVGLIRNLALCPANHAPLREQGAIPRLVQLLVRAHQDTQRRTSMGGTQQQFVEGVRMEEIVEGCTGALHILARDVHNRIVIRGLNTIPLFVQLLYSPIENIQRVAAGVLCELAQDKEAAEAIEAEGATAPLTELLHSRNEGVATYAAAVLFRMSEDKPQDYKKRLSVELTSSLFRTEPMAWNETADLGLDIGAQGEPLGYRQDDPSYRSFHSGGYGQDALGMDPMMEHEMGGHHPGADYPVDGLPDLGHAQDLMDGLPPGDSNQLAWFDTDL

[3] = molecular target: T3, full-length beta-Catenin (Uniprot ID P35222) (Homo sapiens (Human), UniProt P35222 1-781); test: fluorescence polarization competition; peptide titrated against full-length beta-catenin + 5FAM-TCF4(10-53)
T3 construct: also called bCat; B-Catenin
T3 sequence: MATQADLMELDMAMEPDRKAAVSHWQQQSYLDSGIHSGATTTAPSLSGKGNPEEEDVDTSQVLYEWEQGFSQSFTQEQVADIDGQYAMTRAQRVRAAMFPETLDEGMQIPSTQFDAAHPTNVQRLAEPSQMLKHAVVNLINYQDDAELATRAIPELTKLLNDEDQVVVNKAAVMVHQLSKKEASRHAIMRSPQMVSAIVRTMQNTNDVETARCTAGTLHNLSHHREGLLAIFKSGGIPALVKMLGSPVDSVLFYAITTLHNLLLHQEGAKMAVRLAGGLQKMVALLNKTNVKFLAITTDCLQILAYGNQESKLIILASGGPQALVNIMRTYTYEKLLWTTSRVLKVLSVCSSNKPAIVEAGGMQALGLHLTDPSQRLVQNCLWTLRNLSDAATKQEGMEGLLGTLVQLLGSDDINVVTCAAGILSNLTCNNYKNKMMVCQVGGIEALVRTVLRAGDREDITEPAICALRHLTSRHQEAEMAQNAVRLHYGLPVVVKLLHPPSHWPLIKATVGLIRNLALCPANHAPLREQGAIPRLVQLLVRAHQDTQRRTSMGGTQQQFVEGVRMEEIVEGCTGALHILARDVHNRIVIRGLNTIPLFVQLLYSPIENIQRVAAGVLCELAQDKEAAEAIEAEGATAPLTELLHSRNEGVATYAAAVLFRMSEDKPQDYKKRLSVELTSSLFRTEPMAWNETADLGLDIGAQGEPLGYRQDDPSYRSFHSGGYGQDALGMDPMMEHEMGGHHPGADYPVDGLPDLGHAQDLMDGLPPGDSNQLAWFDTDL
Procedure: The plate was incubated protected from light for 60 minutes at 20° C. prior to read. Reads were performed on a CLARIOstar plate reader (BMG Labtech) in duplicate, and data were fitted to a 1:1 binding model with hill slope using an in-house script. All provided concentrations are final concentrations.

[4] = molecular target: T4, B-cat-Halo (UniProt P35222 1-781); test: cell-based or functional assay; remark: listed apart in the source
T4 sequence (looked up): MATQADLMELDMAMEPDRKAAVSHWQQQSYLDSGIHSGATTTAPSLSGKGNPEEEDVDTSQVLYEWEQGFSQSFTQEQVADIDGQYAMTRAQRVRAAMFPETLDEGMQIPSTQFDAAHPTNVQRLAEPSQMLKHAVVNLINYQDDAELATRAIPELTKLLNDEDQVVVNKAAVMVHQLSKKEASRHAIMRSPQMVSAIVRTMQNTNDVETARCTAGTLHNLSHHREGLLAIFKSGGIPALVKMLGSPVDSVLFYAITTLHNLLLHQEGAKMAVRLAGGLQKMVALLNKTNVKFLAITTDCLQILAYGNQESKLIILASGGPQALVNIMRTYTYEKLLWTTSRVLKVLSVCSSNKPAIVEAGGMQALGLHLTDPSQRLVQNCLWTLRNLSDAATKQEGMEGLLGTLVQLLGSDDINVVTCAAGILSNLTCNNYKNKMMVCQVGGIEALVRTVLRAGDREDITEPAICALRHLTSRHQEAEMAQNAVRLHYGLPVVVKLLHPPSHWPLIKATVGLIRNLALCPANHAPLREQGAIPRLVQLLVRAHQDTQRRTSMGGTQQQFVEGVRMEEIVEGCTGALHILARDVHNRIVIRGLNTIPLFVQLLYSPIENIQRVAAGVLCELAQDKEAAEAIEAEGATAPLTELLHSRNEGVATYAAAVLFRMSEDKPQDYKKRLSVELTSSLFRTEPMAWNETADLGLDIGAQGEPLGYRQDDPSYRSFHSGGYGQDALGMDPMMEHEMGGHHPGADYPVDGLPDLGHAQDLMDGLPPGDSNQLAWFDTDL

[5] = molecular target: T5, beta-catenin in DLD1 TCF/LEF luciferase reporter cells (UniProt P35222 1-781); test: cell-based or functional assay
T5 sequence (looked up): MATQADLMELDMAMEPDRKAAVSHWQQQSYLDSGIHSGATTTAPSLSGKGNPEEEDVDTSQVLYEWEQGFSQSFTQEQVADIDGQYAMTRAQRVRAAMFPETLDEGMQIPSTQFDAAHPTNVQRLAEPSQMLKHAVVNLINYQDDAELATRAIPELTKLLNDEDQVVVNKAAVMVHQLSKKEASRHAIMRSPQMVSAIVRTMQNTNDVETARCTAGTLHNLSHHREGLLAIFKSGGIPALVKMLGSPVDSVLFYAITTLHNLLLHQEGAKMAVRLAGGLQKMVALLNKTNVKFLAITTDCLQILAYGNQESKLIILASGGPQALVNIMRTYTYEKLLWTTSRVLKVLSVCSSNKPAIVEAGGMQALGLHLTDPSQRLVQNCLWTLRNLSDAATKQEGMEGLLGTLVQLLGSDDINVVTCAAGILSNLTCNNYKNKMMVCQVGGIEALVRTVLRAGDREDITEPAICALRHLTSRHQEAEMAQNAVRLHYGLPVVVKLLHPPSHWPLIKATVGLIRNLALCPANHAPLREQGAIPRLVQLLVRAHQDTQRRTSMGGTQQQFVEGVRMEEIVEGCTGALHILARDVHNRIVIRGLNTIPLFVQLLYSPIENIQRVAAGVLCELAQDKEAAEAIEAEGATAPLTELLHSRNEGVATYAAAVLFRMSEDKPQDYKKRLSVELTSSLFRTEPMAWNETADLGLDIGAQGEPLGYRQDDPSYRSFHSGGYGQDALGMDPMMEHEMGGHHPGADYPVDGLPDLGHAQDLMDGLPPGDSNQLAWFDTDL

Ac-[αAllylPro]D[tBuAla][B5(3)]D[(Tfb)GA]AAFL[PyrS2″][3Thi][Bta]Q-NH2 (staple 1-4, 4-11) [I-1629]
NanoBRET Abs IC50 [1]: 4.3 µM | DLD1 4% Abs IC50 [2]: 2.7 µM

B1: I-711 (peptide)
peptide: Ms-[αAllylPro]DI[B5(5)]DEAAFQ[S8]F[Bta]Q-NH2
modifications: staple 1-4, 4-11
notes: separate staple-isomer composition (later eluting HPLC peak); also called MeSO2-PL3-Asp-Ile-B5-Asp-Glu-Ala-Ala-Phe-Gln-S8-Phe-BztA-Gln-NH2
IC50 [3]: 88 nM

Ac-[αAllylPro]D[tBuAla][B5(4)]D[TfeGA]AAFL[PyrS2″][3Thi][Bta]A-NH2 (staple 1-4, 4-11) [I-1710]
NanoBRET Abs IC50 [4]: 3.9 µM | DLD1 4% Abs IC50 [5]: 1.9 µM
